Laboratory results published in US8637043B2, “Compositions useful as ligands for the formyl peptide receptor like 1 receptor and methods of use thereof” (Chemocentryx, Inc., priority 2001, dated 2014).
Several values for one entry are separate records, joined by “and”; a condition that tells them apart may be missing. Equal values may be shown once. Read-outs that look alike come from different tables or passages of the source. Ends that are not written are not given here.

What was measured:
immature Dendritic Cells = assay: Calcium mobilization, immature dendritic cells; assay type: cell-based, human
Method: (§1) Human recombinant CKβ8-1(25-116) chemokine was obtained from R&D Systems (Minneapolis, Minn.). The peptide SHAAGtides SEQ ID NO:1 and SEQ ID NO:6 and a control protein (the reverse sequence of SEQ ID NO:1) were synthesized and HPLC-purified using routine techniques as described in Sambrook et al., 1989, and Ausubel et al., 1999.
(§2) Immature DCs were derived by culturing CD14+ monocytes in the presence of GM-CSF and IL4. Briefly, monocytes were cultured in a T-175 flask at 10^6 cells/ml in RPMI/10% FCS. Recombinant human GM-CSF and IL4 were added on day 0, 2, 4 and 6 to a final concentration of 1000 u/ml and 500 u/ml, respectively. Cells were harvested on day 7 as immature DCs and characterized for surface protein expression by FACS analysis. DC maturation was carried out by culturing day 6 immature DCs in macrophage-conditioned medium (MCM). Briefly, day 6 immature DCs were harvested by centrifugation and resuspended in MCM at 10^6 cells/ml. The medium was supplemented with 1000 u/ml of GM-CSF and 500 u/ml IL4. After three more days of culture, cells were harvested as mature DCs and characterized by surface protein expression flow cytometry.
(§3) Ca^2+ mobilization responses were performed using an intracellular ratiometric fluorescent dye, Indo-1. Cells were loaded with Indo-1/AM (3 μM; Molecular Probes (Eugene, Oreg.)) in culture medium (45 min, 20° C., 10^7 cells/mi). After dye loading, cells were washed once (10 ml PBS) and resuspended at 10^6 cell/ml in HBSS containing 1% FBS. Cytosolic [Ca^2+] release was determined using excitation at 350 nm using a Photon Technology International fluorimeter (excitation at 350 nm, ratioed dual emission at 400 and 490 nm).

mature Dendritic Cells = assay: Calcium mobilization, mature dendritic cells; assay type: cell-based, human
Method: as §1, §2
MCM was prepared as follows: PBMCs isolated from buffy coat were incubated at 37° C. in a plastic flask pre-coated with 10 mg/ml human IgG (Sigma, St Louis, Mo.) for 30 minutes. After 30 minutes, non-adherent cells were removed and adherent cells were washed three times with DPBS, then cultured in RPMI/10% human serum. Conditioned-medium was collected after 24 hours. TNF-α concentration, which is critical for DC maturation, was determined by using a TNF-α ELISA kit (R&D Systems, Minn.). The final TNF-α level in MCM was adjusted to 50 u/mi by mixing with RPMI/10% human serum, and was stored at −80 freezer until use.
as §3

human monocytes = assay: Migration assay (ChemoTx), human monocytes; assay type: cell-based; conditions: 90 min, 1-100 nM
Method: Migration assays were performed on monocytes and neutrophils. Human monocytes and neutrophils (prepared as in Exampe 2) were harvested and resuspended in chemotaxis medium (CM). The CM consisted of Hank's buffered salt solution (Gibco, Mass.) containing CaCl2 (1 mM) and MgSO4 (1 mM) with added 0.1% BSA (Sigma, St. Louis, Mo.). The assays were performed in 96-well ChemoTx® microplates (Neuroprobe, Mass.). Leukotactin, MlP-1α and chemokines (CKβ8(1-99), CKβ8(25-99), CKβ8-1(1-116) or CKβ8-1(25-116), prepared as in Example 1) were added to the lower wells (final volume 29 μL), and 20 μL of cell suspension (5×10^6 cells/mL for monocytes; 2.5×10^6 cells/mL for neutrophils) added to the polycarbonate filters (5 μm pore size for monocytes; 3 μm pore size for neutrophils). After incubation for 90 min (37° C., 100% humidity, 5% CO2), cells were removed from the upper surface of the filter by scraping. Cells that migrated into the lower chamber were quantified using the Quant cell proliferation assay kit (Molecular Probes, Oreg.).
The chemotactic activity on human monocytes and neutrophils of chemokines: CKβ8(1-99), CKβ8(25-99), CKβ8(1-116) and CKβ8(25-116); W peptides 1 and 2 and the SHAAGtide sequences SEQ ID NO:1 and SEQ ID NO:2 was determined in migration assays. The above peptides were prepared as in previous examples. The migration assays were performed in 96-well CHEMOTX® microplates (Neuroprobe) using the protocol described in Example 5.

monocytes = assay: Cross-desensitization with leukotactin, monocytes; assay type: cell-based, human
Method: (§4) In cross-desensitization tests tests, cells were stimulated sequentially with leukotactin and then the chemokines CKβ8(1-99), CKβ8(25-99), CKβ8-1(1-116), and CKβ8-1(25-116). On HEK293-CCR1 transfectants (prepared as in Example 1), leukotactin induced similar patterns of receptor desensitization to all variants.
(§5) Similar receptor cross-desensitization tests were performed using both monocytes and neutrophils (prepared as in Example 2).

neutrophils = assay: Cross-desensitization with leukotactin, neutrophils; assay type: cell-based, human
Method: as §4, §5

Molecule | calcium flux (immature Dendritic Cells) | calcium flux (mature Dendritic Cells) | migration of monocytes (human monocytes) | calcium flux (immature Dendritic Cells; listed as CKβ8-1 (25-116)) | desensitization by leukotactin prestimulation (monocytes) | desensitization by leukotactin prestimulation (neutrophils)
MLWRRKIGPQMTLSHAAY [SEQ ID NO: 6] | partially active | partially active | – | – | – | –
MLWRRKIGPQMTLSHAAG [SEQ ID NO: 1] | partially active | partially active | produced migration | – | – | –
CKβ8-1(25-116): novel NH2-terminal truncated form of CKβ8-1, SEQ ID NO: 16, human recombinant chemokine (protein, listed as Homo sapiens) MLWRRKIGPQMTLSHAAGFHATSADCCISYTPRSIPCSLLESYFETNSECSKPGVIFLTKKGRRFCANPSDKQVQVCMRMLKLDTRIKTRKN | induces Ca^2+ release | partially active | dramatically higher activity than the other three variants at 100 nM and 1 and 10 nM was very similar to the other variants and produced migration | partially active | did not desensitize | did not desensitize
CKβ8(25-99): known truncated CKβ8 variant, human recombinant chemokine from R&D Systems (protein, listed as Homo sapiens) RFHATSADCCISYTPRSIPCSLLESYFETNSECSKPGVIFLTKKGRRFCANPSDKQVQVCMRMLKLDTRIKTRKN | – | – | moderate activity | – | completely desensitized | inactive
CKβ8-1(1-116): alternatively spliced form of CKβ8, 116 amino acids, human recombinant chemokine (protein, listed as Homo sapiens) RVTKDAETEFMMSKLPLENPVLLDMLWRRKIGPQMTLSHAAGFHATSADCCISYTPRSIPCSLLESYFETNSECSKPGVIFLTKKGRRFCANPSDKQVQVCMRMLKLDTRIKTRKN | – | – | moderate activity | – | completely desensitized | inactive
